Key:
Experiment in all cases: cell-based or functional assay
[1] = target: T1, factor VIIIa A1/A3C1C2 dimer, D302A (human, UniProt P00451 20-391; P00451 1709-2351)
T1 chain 1: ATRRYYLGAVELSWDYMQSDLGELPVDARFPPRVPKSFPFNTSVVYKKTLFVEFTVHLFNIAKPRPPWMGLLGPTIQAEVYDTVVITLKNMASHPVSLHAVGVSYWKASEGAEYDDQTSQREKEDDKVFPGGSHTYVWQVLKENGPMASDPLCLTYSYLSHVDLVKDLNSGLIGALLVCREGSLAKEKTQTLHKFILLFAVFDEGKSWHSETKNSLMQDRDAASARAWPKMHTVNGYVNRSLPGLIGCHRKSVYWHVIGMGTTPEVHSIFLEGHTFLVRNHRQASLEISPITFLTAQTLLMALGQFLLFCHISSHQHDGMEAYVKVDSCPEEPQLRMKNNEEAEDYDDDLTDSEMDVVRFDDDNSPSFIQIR
T1 chain 2: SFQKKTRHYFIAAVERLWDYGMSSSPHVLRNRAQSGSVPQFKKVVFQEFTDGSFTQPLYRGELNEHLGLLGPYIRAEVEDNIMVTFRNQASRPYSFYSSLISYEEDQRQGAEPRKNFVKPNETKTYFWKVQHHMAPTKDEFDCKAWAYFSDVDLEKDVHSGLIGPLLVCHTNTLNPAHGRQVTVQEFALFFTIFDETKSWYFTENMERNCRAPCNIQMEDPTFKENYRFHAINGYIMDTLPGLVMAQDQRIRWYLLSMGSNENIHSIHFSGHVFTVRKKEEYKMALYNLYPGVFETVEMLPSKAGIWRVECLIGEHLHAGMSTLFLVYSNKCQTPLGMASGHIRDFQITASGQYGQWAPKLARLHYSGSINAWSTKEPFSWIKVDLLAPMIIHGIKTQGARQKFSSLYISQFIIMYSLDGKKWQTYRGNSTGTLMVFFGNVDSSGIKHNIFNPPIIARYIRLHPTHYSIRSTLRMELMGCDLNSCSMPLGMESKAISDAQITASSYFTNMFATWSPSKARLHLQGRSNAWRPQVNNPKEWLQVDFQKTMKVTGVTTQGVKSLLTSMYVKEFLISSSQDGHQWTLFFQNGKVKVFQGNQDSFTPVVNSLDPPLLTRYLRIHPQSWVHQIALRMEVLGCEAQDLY

[2] = target: T2, factor VIIIa A1/A3C1C2 dimer, H317A (human, UniProt P00451 20-391; P00451 1709-2351)
T2 chain 1: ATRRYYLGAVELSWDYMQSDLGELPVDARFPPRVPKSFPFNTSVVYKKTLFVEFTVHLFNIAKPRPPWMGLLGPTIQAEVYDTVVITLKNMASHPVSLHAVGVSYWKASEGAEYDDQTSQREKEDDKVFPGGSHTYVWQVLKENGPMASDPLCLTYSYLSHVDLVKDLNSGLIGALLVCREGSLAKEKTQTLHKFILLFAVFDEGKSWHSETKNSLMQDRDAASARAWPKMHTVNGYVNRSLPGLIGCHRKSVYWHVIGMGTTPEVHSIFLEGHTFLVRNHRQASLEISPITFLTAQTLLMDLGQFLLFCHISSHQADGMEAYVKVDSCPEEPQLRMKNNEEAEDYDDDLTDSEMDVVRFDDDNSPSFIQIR
T2 chain 2: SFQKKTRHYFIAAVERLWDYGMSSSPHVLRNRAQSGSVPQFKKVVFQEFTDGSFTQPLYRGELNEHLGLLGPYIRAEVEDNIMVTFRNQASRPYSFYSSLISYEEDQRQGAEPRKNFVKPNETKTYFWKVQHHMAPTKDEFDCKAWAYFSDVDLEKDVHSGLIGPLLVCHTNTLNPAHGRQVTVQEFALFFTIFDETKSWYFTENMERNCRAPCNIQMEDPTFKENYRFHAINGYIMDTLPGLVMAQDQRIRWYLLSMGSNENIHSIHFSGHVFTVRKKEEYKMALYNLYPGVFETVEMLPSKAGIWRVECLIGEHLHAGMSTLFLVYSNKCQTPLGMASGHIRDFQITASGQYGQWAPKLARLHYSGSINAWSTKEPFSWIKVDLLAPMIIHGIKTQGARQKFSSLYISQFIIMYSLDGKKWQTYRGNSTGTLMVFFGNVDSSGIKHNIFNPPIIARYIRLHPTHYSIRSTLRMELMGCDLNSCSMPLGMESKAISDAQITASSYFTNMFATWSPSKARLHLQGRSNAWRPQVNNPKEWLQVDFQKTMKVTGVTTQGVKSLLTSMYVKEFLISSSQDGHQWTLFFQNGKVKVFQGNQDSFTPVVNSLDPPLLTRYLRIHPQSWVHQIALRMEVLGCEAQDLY

[3] = target: T3, factor VIIIa A1/A3C1C2 dimer, R282A (human, UniProt P00451 20-391; P00451 1709-2351)
T3 chain 1: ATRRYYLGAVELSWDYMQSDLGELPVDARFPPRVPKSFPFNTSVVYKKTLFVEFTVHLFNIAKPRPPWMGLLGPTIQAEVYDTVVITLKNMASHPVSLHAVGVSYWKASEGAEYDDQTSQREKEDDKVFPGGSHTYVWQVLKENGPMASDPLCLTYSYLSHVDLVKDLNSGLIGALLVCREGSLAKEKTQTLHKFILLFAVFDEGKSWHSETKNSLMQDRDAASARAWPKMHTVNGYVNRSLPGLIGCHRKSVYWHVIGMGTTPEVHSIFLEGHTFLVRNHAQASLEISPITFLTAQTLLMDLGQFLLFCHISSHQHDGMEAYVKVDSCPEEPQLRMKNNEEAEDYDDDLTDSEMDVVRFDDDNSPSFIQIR
T3 chain 2: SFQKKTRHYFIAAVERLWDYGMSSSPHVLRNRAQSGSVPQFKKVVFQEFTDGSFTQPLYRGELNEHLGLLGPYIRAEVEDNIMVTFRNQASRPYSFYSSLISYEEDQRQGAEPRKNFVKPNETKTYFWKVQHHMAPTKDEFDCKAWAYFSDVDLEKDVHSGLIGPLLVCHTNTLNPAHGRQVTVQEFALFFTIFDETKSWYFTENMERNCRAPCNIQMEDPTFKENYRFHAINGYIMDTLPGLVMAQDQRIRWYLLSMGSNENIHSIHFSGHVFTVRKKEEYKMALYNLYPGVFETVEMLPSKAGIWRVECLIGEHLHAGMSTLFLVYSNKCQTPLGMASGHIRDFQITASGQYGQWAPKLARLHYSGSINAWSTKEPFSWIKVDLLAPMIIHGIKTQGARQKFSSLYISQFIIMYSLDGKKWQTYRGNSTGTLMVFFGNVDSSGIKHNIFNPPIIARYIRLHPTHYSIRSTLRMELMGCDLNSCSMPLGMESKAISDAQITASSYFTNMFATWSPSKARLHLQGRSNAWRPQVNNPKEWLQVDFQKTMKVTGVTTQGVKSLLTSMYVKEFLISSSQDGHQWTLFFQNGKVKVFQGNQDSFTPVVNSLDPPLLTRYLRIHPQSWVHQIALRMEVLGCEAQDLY

[4] = target: T4, factor VIIIa A1/A3C1C2 dimer, E113A and E1984V (human, UniProt P00451 20-391; P00451 1709-2351)
T4 chain 1: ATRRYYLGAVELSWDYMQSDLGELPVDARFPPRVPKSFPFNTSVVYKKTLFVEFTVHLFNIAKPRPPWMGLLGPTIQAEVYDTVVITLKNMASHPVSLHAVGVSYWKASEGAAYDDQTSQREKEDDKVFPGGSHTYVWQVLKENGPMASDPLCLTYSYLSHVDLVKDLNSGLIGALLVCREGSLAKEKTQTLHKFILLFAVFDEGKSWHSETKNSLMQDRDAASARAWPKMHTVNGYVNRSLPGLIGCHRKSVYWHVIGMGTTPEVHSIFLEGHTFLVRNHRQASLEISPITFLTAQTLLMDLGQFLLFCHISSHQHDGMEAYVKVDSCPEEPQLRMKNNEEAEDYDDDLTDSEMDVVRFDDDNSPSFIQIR
T4 chain 2: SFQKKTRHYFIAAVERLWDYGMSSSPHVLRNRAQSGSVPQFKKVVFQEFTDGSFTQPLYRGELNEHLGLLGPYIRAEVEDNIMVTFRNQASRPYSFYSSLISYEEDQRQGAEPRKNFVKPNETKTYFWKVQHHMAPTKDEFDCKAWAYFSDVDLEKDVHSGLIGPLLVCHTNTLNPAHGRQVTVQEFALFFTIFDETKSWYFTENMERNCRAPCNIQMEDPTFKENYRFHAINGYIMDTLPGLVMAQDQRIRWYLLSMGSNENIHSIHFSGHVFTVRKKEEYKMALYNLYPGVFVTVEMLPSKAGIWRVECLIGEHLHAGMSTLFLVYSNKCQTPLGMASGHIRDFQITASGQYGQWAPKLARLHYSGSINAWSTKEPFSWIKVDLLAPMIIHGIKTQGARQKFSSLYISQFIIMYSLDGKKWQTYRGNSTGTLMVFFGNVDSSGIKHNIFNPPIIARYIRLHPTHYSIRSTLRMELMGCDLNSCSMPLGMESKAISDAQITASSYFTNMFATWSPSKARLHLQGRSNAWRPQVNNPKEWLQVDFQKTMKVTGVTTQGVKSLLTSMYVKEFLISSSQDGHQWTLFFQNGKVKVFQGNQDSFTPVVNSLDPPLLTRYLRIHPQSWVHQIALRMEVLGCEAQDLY

Factor VIIIa decay rate relative to wild type, FIXa (+) [1]: 0.43 relative to wild type | Factor VIIIa decay rate, FIXa (+) [1]: 0.0049 min⁻¹ | Factor VIIIa decay rate relative to wild type, FIXa (+) [2]: 1.28 relative to wild type | Factor VIIIa decay rate, FIXa (+) [2]: 0.0145 min⁻¹ | Factor VIIIa decay rate relative to wild type, FIXa (+) [3]: 41.7 relative to wild type | Factor VIIIa decay rate relative to wild type, FIXa (-) [3]: 10.7 relative to wild type | Factor VIIIa decay rate, FIXa (+) [3]: 0.471 min⁻¹ | Factor VIIIa decay rate, FIXa (-) [3]: 0.674 min⁻¹ | Decay rate relative to wild type, Factor VIIIa (1.5 nM, factor IXa absent) [4]: 0.4 relative to wild type | Decay rate, Factor VIIIa (1.5 nM factor VIIIa, factor IXa absent) [4]: 0.0567 min⁻¹
B1: factor VIIIa A2 subunit, wild type (other)
chain: SVAKKHPKTWVHYIAAEEEDWDYAPLVLAPDDRSYKSQYLNNGPQRIGRKYKKVRFMAYTDETFKTREAIQHESGILGPLLYGEVGDTLLIIFKNQASRPYNIYPHGITDVRPLYSRRLPKGVKHLKDFPILPGEIFKYKWTVTVEDGPTKSDPRCLTRYYSSFVNMERDLASGLIGPLLICYKESVDQRGNQIMSDKRNVILFSVFDENRSWYLTENIQRFLPNPAGVQLEDPEFQASNIMHSINGYVFDSLQLSVCLHEVAYWYILSIGAQTDFLSVFFSGYTFKHKMVYEDTLTLFPFSGETVFMSMENPGLWILGCHNSDFRNRGMTALLKVSSCDKNTGDYYEDSYEDISAYLLSKNNAIEPR

From patent US20090118184A1 (UNIVERSITY OF ROCHESTER, published 2009)
